First the molecules themselves.
B1: Translation initiation factor eIF2 assembly protein (Saccharomyces cerevisiae), Q05791 (parent)
chain: MSSQEYTTFIDIPVTRAQVEHCSYSFWSSLYPKYVPKSIVLKSLPKKFIQYLEQDGIKLPQEENSRSVYTEEIIRNEDNDYSDWEDDEDTATEFVQEVEPLIDFPELHQKLKDALNELGAVAPKLNWSAPRDATWILPNNTMKCNEVNELYLLLNASNYIMHDLQRAFKGCVDGDDIKGLKFDLVLRQWCDMNPALEFRVFVKNAHIVGATQRDLNYYDYLDELSDTFKDLIDEIVHDVVLPKFPDKSFVLDVYIPRPFNKIFIVDINPFARKTDSLLFSWNEIAAIAPPKNDVEDYELRLVTRHNTGRFASKEHSENHVPQDLVEASLNPEAIRELTQKWKELLSQQAKEESSDSENET

The experiment covers variants of B1. Conditions: with if2g_yeast GCD11, P32481.
if2g_yeast GCD11, P32481, sequence (P32481 whole entry): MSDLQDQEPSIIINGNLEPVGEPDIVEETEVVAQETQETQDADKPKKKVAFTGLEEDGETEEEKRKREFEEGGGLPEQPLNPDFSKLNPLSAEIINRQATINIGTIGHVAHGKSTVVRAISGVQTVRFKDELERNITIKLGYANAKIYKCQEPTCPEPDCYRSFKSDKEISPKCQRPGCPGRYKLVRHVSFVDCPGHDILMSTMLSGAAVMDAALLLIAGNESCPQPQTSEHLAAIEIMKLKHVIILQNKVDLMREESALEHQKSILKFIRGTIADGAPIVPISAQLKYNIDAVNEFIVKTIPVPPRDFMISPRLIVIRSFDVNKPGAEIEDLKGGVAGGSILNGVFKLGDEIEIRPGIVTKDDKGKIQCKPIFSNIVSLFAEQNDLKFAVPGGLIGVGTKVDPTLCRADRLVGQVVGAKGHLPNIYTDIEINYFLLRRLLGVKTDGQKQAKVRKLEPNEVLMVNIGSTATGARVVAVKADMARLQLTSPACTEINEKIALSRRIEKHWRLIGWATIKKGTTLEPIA
As to MSSQEYTTFIDIPVTRAQVEHCSYSFWSSLYPKYVPKSIVLKSLPKKFIQYLEQDGIKLPQEENSRSVYTEEIIRNEDNDYSDWEDDEDTATEFVQEVEPLIDFPELHQKLKDALNELGAVAPKLNWSAPRDATWILPNNTMKCNEVNELYLLLNASNYIMHDLQRAFKGCVDGDDIKGLKFDLVLRQWCDMNPALEFRVFVKNAHIVGATQRDLNYYDYLDELSDTFKDLIDEIVHDVVLPKFPDKSFVLDVYIPRPFNKIFIVAAAPFARKTDSLLFSWNEIAAIAPPKNDVEDYELRLVTRHNTGRFASKEHSENHVPQDLVEASLNPEAIRELTQKWKELLSQQAKEESSDSENET [D266A;I267A;N268A], the “effect of a mutation on the interaction” value is given as “decreasing interaction strength”.

The values above are taken from IntAct's records for PubMed 26211610.
